# ± gives the uncertainty stated by the source.
# B1: Protein C-ets-1, residues 55 to 135; numbered along this chain, P14921 (parent)
# chain: GFTKEQQRLGIPKDPRQWTETHVRDWVMWAVNEFSLKGVDFQKFCMNGAALCALGKDCFLELAPDFVGDILWEHLEILQKE
# Variants of: B1
# Assay: abundance fitness (aPCA) (normalised: wild type 0, dead -1); higher = more abundant; growth selection in yeast, the domain comes from the species named
# Details: Homo sapiens
row,Variant,abundance fitness
1,GFTKEQQRLGIPKDPRQWTETHVRDWVMWAVNEFSLKGVDFQKFCMNGAALCALGKDCWLELAPDFVGDILWEHLEILQKE,-0.318 ± 0.039
2,GFTKEQQRLGIPKDPRQWTETHVRDWVMWAVNEFSLKGVDFQKFCMNGAALCALGKDCNLELAPDFVGDILWEHLEILQKE,-0.494 ± 0.084
3,GFTKEQQRLGIPKDPRQWTETHVRDWVMWAVNEFSLKGVDFQKFCMNGAALCALGKDCCLELAPDFVGDILWEHLEILQKE,-0.65 ± 0.083
4,GFTKEQQRLGIPKDPRQWTETHVRDWVMWAVNEFSLKGVDFQKFCMNGAALCALGKDCKLELAPDFVGDILWEHLEILQKE,-0.882 ± 0.097
5,GFTKEQQRLGIPKDPRQWTETHVRDWVMWAVNEFSLKGVDFQKFCMNGAALCALGKDCTLELAPDFVGDILWEHLEILQKE,-0.963 ± 0.096
6,GFTKEQQRLGIPKDPRQWTETHVRDWVMWAVNEFSLKGVDFQKFCMNGAALCALGKDCMLELAPDFVGDILWEHLEILQKE,-0.239 ± 0.048
7,GFTKEQQRLGIPKDPRQWTETHVRDWVMWAVNEFSLKGVDFQKFCMNGAALCALGKDCYLELAPDFVGDILWEHLEILQKE,-0.869 ± 0.17
8,GFTKEQQRLGIPKDPRQWTETHVRDWVMWAVNEFSLKGVDFQKFCMNGAALCALGKDCLLELAPDFVGDILWEHLEILQKE,-0.252 ± 0.032
9,GFTKEQQRLGIPKDPRQWTETHVRDWVMWAVNEFSLKGVDFQKFCMNGAALCALGKDCILELAPDFVGDILWEHLEILQKE,-0.414 ± 0.064
10,GFTKEQQRLGIPKDPRQWTETHVRDWVMWAVNEFSLKGVDFQKFCMNGAALCALGKDCHLELAPDFVGDILWEHLEILQKE,-0.953 ± 0.14
11,GFTKEQQRLGIPKDPRQWTETHVRDWVMWAVNEFSLKGVDFQKFCMNGAALCALGKDCGLELAPDFVGDILWEHLEILQKE,-0.95 ± 0.054
12,GFTKEQQRLGIPKDPRQWTETHVRDWVMWAVNEFSLKGVDFQKFCMNGAALCALGKDCPLELAPDFVGDILWEHLEILQKE,-0.984 ± 0.078
13,GFTKEQQRLGIPKDPRQWTETHVRDWVMWAVNEFSLKGVDFQKFCMNGAALCALGKDCELELAPDFVGDILWEHLEILQKE,-0.944 ± 0.1
14,GFTKEQQRLGIPKDPRQWTETHVRDWVMWAVNEFSLKGVDFQKFCMNGAALCALGKDCSLELAPDFVGDILWEHLEILQKE,-0.918 ± 0.063
15,GFTKEQQRLGIPKDPRQWTETHVRDWVMWAVNEFSLKGVDFQKFCMNGAALCALGKDCQLELAPDFVGDILWEHLEILQKE,-0.836 ± 0.08
16,GFTKEQQRLGIPKDPRQWTETHVRDWVMWAVNEFSLKGVDFQKFCMNGAALCALGKDCDLELAPDFVGDILWEHLEILQKE,-0.782 ± 0.078
17,GFTKEQQRLGIPKDPRQWTETHVRDWVMWAVNEFSLKGVDFQKFCMNGAALCALGKDHFLELAPDFVGDILWEHLEILQKE,0.039 ± 0.056

row,Variant,abundance fitness
1,GFTKEQQRLGIPKDPRQWTETHVRDWVMWAVNEFSLKGVDFQKFCMNGAALCALGKDVFLELAPDFVGDILWEHLEILQKE,0.018 ± 0.035
2,GFTKEQQRLGIPKDPRQWTETHVRDWVMWAVNEFSLKGVDFQKFCMNGAALCALGKDIFLELAPDFVGDILWEHLEILQKE,-0.094 ± 0.073
3,GFTKEQQRLGIPKDPRQWTETHVRDWVMWAVNEFSLKGVDFQKFCMNGAALCALGKDWFLELAPDFVGDILWEHLEILQKE,-0.101 ± 0.036
4,GFTKEQQRLGIPKDPRQWTETHVRDWVMWAVNEFSLKGVDFQKFCMNGAALCALGKDYFLELAPDFVGDILWEHLEILQKE,0.008 ± 0.048
5,GFTKEQQRLGIPKDPRQWTETHVRDWVMWAVNEFSLKGVDFQKFCMNGAALCALGKDRFLELAPDFVGDILWEHLEILQKE,0.023 ± 0.027
6,GFTKEQQRLGIPKDPRQWTETHVRDWVMWAVNEFSLKGVDFQKFCMNGAALCALGKDEFLELAPDFVGDILWEHLEILQKE,0.05 ± 0.04
7,GFTKEQQRLGIPKDPRQWTETHVRDWVMWAVNEFSLKGVDFQKFCMNGAALCALGKDQFLELAPDFVGDILWEHLEILQKE,0.045 ± 0.044
8,GFTKEQQRLGIPKDPRQWTETHVRDWVMWAVNEFSLKGVDFQKFCMNGAALCALGKDSFLELAPDFVGDILWEHLEILQKE,0.035 ± 0.027
9,GFTKEQQRLGIPKDPRQWTETHVRDWVMWAVNEFSLKGVDFQKFCMNGAALCALGKDKFLELAPDFVGDILWEHLEILQKE,-0.007 ± 0.062
10,GFTKEQQRLGIPKDPRQWTETHVRDWVMWAVNEFSLKGVDFQKFCMNGAALCALGKDLFLELAPDFVGDILWEHLEILQKE,-0.026 ± 0.033
11,GFTKEQQRLGIPKDPRQWTETHVRDWVMWAVNEFSLKGVDFQKFCMNGAALCALGKDAFLELAPDFVGDILWEHLEILQKE,0.049 ± 0.036
12,GFTKEQQRLGIPKDPRQWTETHVRDWVMWAVNEFSLKGVDFQKFCMNGAALCALGKDNFLELAPDFVGDILWEHLEILQKE,0.033 ± 0.055
13,GFTKEQQRLGIPKDPRQWTETHVRDWVMWAVNEFSLKGVDFQKFCMNGAALCALGKDGFLELAPDFVGDILWEHLEILQKE,0.049 ± 0.024
14,GFTKEQQRLGIPKDPRQWTETHVRDWVMWAVNEFSLKGVDFQKFCMNGAALCALGKDFFLELAPDFVGDILWEHLEILQKE,-0.096 ± 0.051
15,GFTKEQQRLGIPKDPRQWTETHVRDWVMWAVNEFSLKGVDFQKFCMNGAALCALGKDMFLELAPDFVGDILWEHLEILQKE,-0.009 ± 0.042
16,GFTKEQQRLGIPKDPRQWTETHVRDWVMWAVNEFSLKGVDFQKFCMNGAALCALGKDTFLELAPDFVGDILWEHLEILQKE,0.016 ± 0.042
17,GFTKEQQRLGIPKDPRQWTETHVRDWVMWAVNEFSLKGVDFQKFCMNGAALCALGKDDFLELAPDFVGDILWEHLEILQKE,0.056 ± 0.07

# From the Human Domainome abundance scans (Beltran et al. 2025)
